Experimental findings from PMC8458290 (Nature Communications, 2021) are described below.

For assay [1], the target named is T1, Alpha (B.1.1.7) RBD, biotinylated (SARS-CoV-2, Alpha (B.1.1.7), N501Y, biotinylated (site not stated)).
T1 construct: also called Alpha RBD; RBD-Kent
As to the kind of experiment: SPR. Conditions: both partners purified.

For assay [2], the target named is T2, Beta (B.1.351) RBD, biotinylated (SARS-CoV-2, Beta (B.1.351), N501Y | E484K | K417N, biotinylated (site not stated)).
T2 construct: also called Beta RBD; Beta-RBD
As to the kind of experiment: SPR. Conditions: both partners purified.

B1: nanobody C1 (monovalent VHH, pOPINO construct) (VHH)
VHH: QVQLVESGGGLVQPGGSLRLSCAASGFTNDFYSIAWFRQAPGKEREGVSWLSVSDNTPTYVDSVKDRFTISRHNANNTVYLQMNMLKPEDTAIYYCAAGRFAGRDTWPSSYDYWGQGTQVTVSS
What is called Kd is the concentration at which binding is half-saturated. Turning to B1, the Kd came out at 0.725 nM in assay [1] and 0.648 nM in assay [2]. In assay [1], this molecule came in with a T1/2 of 21 min.

B2: nanobody F2 (monovalent VHH, pOPINO construct) (VHH)
VHH: QVQLVESGGGLVQAGGSLRLACIASGRTFHSYVMAWFRQAPGKEREFVAAISWSSTPTYYGESVKGRFTISRDNAKNTVYLQMNRLKPEDTAVYFCAADRGESYYYTRPTEYEFWGQGTQVTVSS
In assay [1], B2 returned a dissociation constant (Kd) of 0.047 nM and a T1/2 of 51 min. Further, in assay [2], the affinity, expressed as Kd, was 0.038 nM and the T1/2 amounted to 52 min.
